Experimental data reported in publication PMC6959147 (BioMed Research International, 2019).

The binders below were run against T1, recombinant human PD-L1, Fc-tagged (rhPD-L1-Fc) (Homo sapiens, UniProt Q9NZQ7) (assay: flow cytometry on cells; scFv displayed on yeast, titration with rhPD-L1-Fc (10 pM to 10 nM plus 30 nM), PBS 0.5% BSA, room temperature; binding MFI normalised on scFv expression; apparent KD = half-saturating antigen concentration). Conditions: one partner purified.
T1 construct: human PD-L1 (programmed death ligand-1) extracellular domain, linked to the Fc region of human IgG1; soluble disulfide-linked homodimer; also called dimeric rhPD-L1-Fc; dimeric PD-L1; source: bought: R&D Systems
T1 sequence (Q9NZQ7 19-238): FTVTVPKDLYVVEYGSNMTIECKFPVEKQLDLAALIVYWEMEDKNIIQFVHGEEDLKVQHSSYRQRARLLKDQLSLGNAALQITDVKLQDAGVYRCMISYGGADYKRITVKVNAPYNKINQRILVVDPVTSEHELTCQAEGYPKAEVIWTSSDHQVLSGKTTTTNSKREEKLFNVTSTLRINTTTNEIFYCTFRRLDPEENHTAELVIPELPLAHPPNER

Kd [nM] | Binder
< 1 | scFv-yeast clone 3_3 (scFv, V domains shown, as the stretch N-terminal of the HCDR3 of m4; HCDR3 of clone 3_3 (same as 10_4); as the stretch C-terminal of the HCDR3 of m4; also called 10_4; not shown: HA, C-terminal, kept) VH: not shown VL: NFMLTQPHSVSESPGKTITISCTRSSGSIAGNYVQWYQQRPGSAPIIVIYEDNQRPSGVPDRFSGSIDSSSNSASLTISRLKTEDEADYYCQSYEASNVVFGGGTKLTVL
< 1 | scFv-yeast clone 3_7 (scFv, V domains shown, as the stretch N-terminal of the HCDR3 of m4; HCDR3 of clone 3_7; as the stretch C-terminal of the HCDR3 of m4; not shown: HA, C-terminal, kept) VH: not shown VL: NFMLTQPHSVSESPGKTITISCTRSSGSIAGNYVQWYQQRPGSAPIIVIYEDNQRPSGVPDRFSGSIDSSSNSASLTISRLKTEDEADYYCQSYEASNVVFGGGTKLTVL
< 1 | scFv-yeast clone 10_3 (scFv, V domains shown, as the stretch N-terminal of the HCDR3 of m4; HCDR3 of clone 10_3; as the stretch C-terminal of the HCDR3 of m4; not shown: HA, C-terminal, kept) VH: not shown VL: NFMLTQPHSVSESPGKTITISCTRSSGSIAGNYVQWYQQRPGSAPIIVIYEDNQRPSGVPDRFSGSIDSSSNSASLTISRLKTEDEADYYCQSYEASNVVFGGGTKLTVL
< 1 | scFv-yeast clone 3_14 (scFv, V domains shown, as the stretch N-terminal of the HCDR3 of m4; HCDR3 of clone 3_14 (same as 10_2); as the stretch C-terminal of the HCDR3 of m4; also called 10_2; not shown: HA, C-terminal, kept) VH: not shown VL: NFMLTQPHSVSESPGKTITISCTRSSGSIAGNYVQWYQQRPGSAPIIVIYEDNQRPSGVPDRFSGSIDSSSNSASLTISRLKTEDEADYYCQSYEASNVVFGGGTKLTVL
< 1 | scFv-yeast clone 3_17 (scFv, V domains shown, as the stretch N-terminal of the HCDR3 of m4; HCDR3 of clone 3_17; as the stretch C-terminal of the HCDR3 of m4; not shown: HA, C-terminal, kept) VH: not shown VL: NFMLTQPHSVSESPGKTITISCTRSSGSIAGNYVQWYQQRPGSAPIIVIYEDNQRPSGVPDRFSGSIDSSSNSASLTISRLKTEDEADYYCQSYEASNVVFGGGTKLTVL
< 1 | scFv-yeast clone 10_12 (scFv, V domains shown, as the stretch N-terminal of the HCDR3 of m4; HCDR3 of clone 10_12; as the stretch C-terminal of the HCDR3 of m4; not shown: HA, C-terminal, kept) VH: not shown VL: NFMLTQPHSVSESPGKTITISCTRSSGSIAGNYVQWYQQRPGSAPIIVIYEDNQRPSGVPDRFSGSIDSSSNSASLTISRLKTEDEADYYCQSYEASNVVFGGGTKLTVL

These binders were tested against T1, recombinant human PD-L1, Fc-tagged … (assay: SPR; Biacore X100, 25°C, HBS-EP pH 7.4; dimeric rhPD-L1-Fc (300 RU) immobilised by amine coupling on CM5, IgG as analyte (12.5-0.39 nM wild type, 6.25-0.39 nM mutated mAbs); 1:1 Langmuir; apparent constants (KD2) of bivalent binding). Conditions: both partners purified.

Kd [nM] | koff [s⁻¹] | kon [M⁻¹ s⁻¹] | Binder
0.287 | 0.000287 | 1.03e+06 | mAb 3_7 (IgG4 converted from scFv 3_7) (antibody, V domains shown, as the VH stretch before the HCDR3 of m14; HCDR3 of 3_7; T to S at position 1 and D to Y at position 10 against the wild type; as the VH stretch after the HCDR3 of m14; as the light chain of m14; IgG4; also called IgG 3_7; source: EBNA 293 cells, cotransfected (pEU8.2 and pEU4.2), purified from the medium (protein A); copies: 2 + 2) VH: not shown VL: NFMLTQPHSVSESPGKTITISCTRSSGSIAGNYVQWYQQRPGSAPIIVIYEDNQRPSGVPDRFSGSIDSSSNSASLTISRLKTEDEADYYCQSYEASNVVFGGGTKLTVL
0.172 | 0.000176 | 1.05e+06 | mAb 3_14 (IgG4 converted from scFv 3_14) (antibody, V domains shown, as the VH stretch before the HCDR3 of m14; HCDR3 of 3_14; T to S at position 1 and D to G at position 10 against the wild type; as the VH stretch after the HCDR3 of m14; as the light chain of m14; IgG4; also called IgG 3_14; source: EBNA 293 cells, cotransfected (pEU8.2 and pEU4.2), purified from the medium (protein A); copies: 2 + 2) VH: not shown VL: NFMLTQPHSVSESPGKTITISCTRSSGSIAGNYVQWYQQRPGSAPIIVIYEDNQRPSGVPDRFSGSIDSSSNSASLTISRLKTEDEADYYCQSYEASNVVFGGGTKLTVL
0.139 | 0.000148 | 1.1e+06 | mAb 10_3 (IgG4 converted from scFv 10_3) (antibody, V domains shown, as the VH stretch before the HCDR3 of m14; HCDR3 of 10_3; T to S at position 1, Y to F at position 9 and D to G at position 10 against the wild type; as the VH stretch after the HCDR3 of m14; as the light chain of m14; IgG4; also called IgG 10_3; antibody 10_3; source: EBNA 293 cells, cotransfected (pEU8.2 and pEU4.2), purified from the medium (protein A); copies: 2 + 2) VH: not shown VL: NFMLTQPHSVSESPGKTITISCTRSSGSIAGNYVQWYQQRPGSAPIIVIYEDNQRPSGVPDRFSGSIDSSSNSASLTISRLKTEDEADYYCQSYEASNVVFGGGTKLTVL
0.165 | 0.000159 | 1.01e+06 | mAb 3_17 (IgG4 converted from scFv 3_17) (antibody, V domains shown, as the VH stretch before the HCDR3 of m14; HCDR3 of 3_17; T to S at position 1 and D to A at position 10 against the wild type; as the VH stretch after the HCDR3 of m14; as the light chain of m14; IgG4; also called IgG 3_17; source: EBNA 293 cells, cotransfected (pEU8.2 and pEU4.2), purified from the medium (protein A); copies: 2 + 2) VH: not shown VL: NFMLTQPHSVSESPGKTITISCTRSSGSIAGNYVQWYQQRPGSAPIIVIYEDNQRPSGVPDRFSGSIDSSSNSASLTISRLKTEDEADYYCQSYEASNVVFGGGTKLTVL
0.174 | 0.000193 | 1.14e+06 | mAb 3_3 (IgG4 converted from scFv 3_3) (antibody, V domains shown, as the VH stretch before the HCDR3 of m14; HCDR3 of 3_3; T to S at position 1 and D to N at position 10 against the wild type; as the VH stretch after the HCDR3 of m14; as the light chain of m14; IgG4; also called IgG 3_3; source: EBNA 293 cells, cotransfected (pEU8.2 and pEU4.2), purified from the medium (protein A); copies: 2 + 2) VH: not shown VL: NFMLTQPHSVSESPGKTITISCTRSSGSIAGNYVQWYQQRPGSAPIIVIYEDNQRPSGVPDRFSGSIDSSSNSASLTISRLKTEDEADYYCQSYEASNVVFGGGTKLTVL
